Experimental findings from the nanobody polyreactivity screen of Harvey et al. (2022) are described below.

The series is described as follows: yeast display, Sf9 membrane polyspecificity reagent, FACS + sequencing; frameworks hold sequencing errors. A digest of the protocol: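 A nanobody's polyreactivity label depends on the gate it was sorted from. Yeast display cells were stained with 10% biotinylated, detergent-solubilized Sf9 membrane reagent for 1 hour at 4 °C, enriched on streptavidin microbeads and sorted by FACS. The low and high (top ~1%) gates were set on anti-HA fluorescence for expression and streptavidin fluorescence for reagent binding.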
With “QVQLVESGGGLDQAGGSLRLSCAASGFIFRYYAMGWYRQAPGKERELVAAISRNGGSTYYADSVKGRFTISRDIAKNTVYLQMNSLKPEDTAVYYCAALTGRERYDYWGQGTQVTVSS”, the “polyreactivity (PSR sort gate)” value was “high polyreactivity”.

Consider “QVQLVESGGGLVQAGRSLRLSCAASGFPFYQYAMGWYRQAPGQERELVAAITWSRGDTYYADSVKGRFTISRDNAKNTVYLQMNSLKPEDSAVFNCNADDRPRGPYYDSFDYRGDYWGQGTQVTVSS”, for which the “polyreactivity (PSR sort gate)” value is listed as “low polyreactivity”.

Turning to “QVQLVESGGGLVQAGGSLRLSCAASGGTFTYSPMGWDREATGTERELVAAITDGGSTYYAVSVKGRFTISRDNAKTTFYLQMNSLKPEDTAVYYCAVRVRHNSKNTFFPYSYGYWGQGTQVTVSS”, the “polyreactivity (PSR sort gate)” value is given as “low polyreactivity”.

With “QDQLVESGGGLVQAGGSLRLSCAASGSIFVYNTMGWYRPAPRKESDLVAAISSSGGSTYYADSVKGRYTISRDNAKNTVYLQMNSLKPEDTAVYYCAAVNGYQYPPNYYNGYDYWGQGTQVTVSS”, the “polyreactivity (PSR sort gate)” value is reported as “low polyreactivity”.

Take “QVQLVESGGGLVQAGGRLRLSCAASGRILYVYLMGWYRQAPGKERELGAAISRRGGGTYYADSVKGRFTISRDNAKNTVYLQMNSLKPEDTAVYYCATDQYYEYDYWGQGTQVTVSS”: the “polyreactivity (PSR sort gate)” value is “low polyreactivity”.

As to “QVQLVESGGGLVQAGGSLRLSCAASGRTFRWYAMGWYRQAPGKERELVATITSGGSTNYADSVKGRFTISRDNAKNTVYLQMNSLKPEDTAVYYCAAWSYAYYYRLRYVSHDYWGQGTQVTVSS”, the “polyreactivity (PSR sort gate)” value is given as “high polyreactivity”.

On to “QVQLVESGGGLVQAGGSLRLSCAASGFIFSYYAMGWYRQAPGKERELVAAISSSGSRTYYADSVKGRFTISRDNAKNTVYLQMNSLKPEDTAVYYCAARGAAKYGYWGQGTQVTVSS”, for which the “polyreactivity (PSR sort gate)” value is given as “high polyreactivity”.

As for “QVQLVESGGGLVQAGGSLRLSCAASGITFVYNDMGSYRQAPGKESELVAAISWRGGSTYYADSVKGRFTISRDNAKNTVYLQMNSLKPEDTAVYYCNKLPTYPEYGYDSWGQGTQVTVSS”, the “polyreactivity (PSR sort gate)” value was “high polyreactivity”.

With “QVQLVESGGCLVPAGGSLRLSCAASGHTFSSYAMGWYRQAPGKERELVAAISVSATRTYYADSVKGRFTISRDNAKNTVYLQMNSLKPEDTAVFYCAARPVQFTYGYWGQGTQVTVSS”, the “polyreactivity (PSR sort gate)” value is on record as “high polyreactivity”.

Regarding “QVQLVESGGGLFQAGGSLRLSCAASGRTFGYNVMGWYRQATGKERELVAGITSSGSTNYADSVKGRFTISRDNVKNTFYLQMNSLKPEETAVYYCAAGDRRWGFQVGYWGQGTQVTVSS”, the “polyreactivity (PSR sort gate)” value is reported as “high polyreactivity”.

On to “QVQLVESGGGLVQAGGSLRLICAASGSIFVNNGMGWYRQAPGKERELVAAIRLSTGSTYYADSVKGRFPISRDNAKNTVYLQMNSLKPEDTAVYYCATRYYIWGNWGQGTQVTVSS”, for which the “polyreactivity (PSR sort gate)” value is recorded as “high polyreactivity”.

“QVQLEESGGGLVQAGGSLRLSCAASGFTFYLYTMGWYRQAPGKERELVAAISRSGDRTYYADSVKGRFSISRDNAKNTVYLQMNSLKPEDTAVYYCAARSYRPTRGDYWGQGTQVTVSS”: the “polyreactivity (PSR sort gate)” value was “high polyreactivity”.

On to “QVQLVESGGGLVQAGGSLRLSCAASGSTFQGNAMGWYSQAPGKERELVAAISRSGGSTYADSVKGRFTISRDNAKNTVYLQMNSLKPEDTAVYYCAAYSGVGYLWFDYWGQGTQVTVSS”, for which the “polyreactivity (PSR sort gate)” value was “low polyreactivity”.

Turning to “QVQLVESGGGLVQAGGSLRLSCAASGFIFPAYTMGWYRQAPGKERELVAAITWSGGSTYYADSVKGRFTISRDNAKNTVYLQMKSLKPEDTAVYYCAAYVSRKYRKGPRFAYDYWGQGTQVTVSS”, the “polyreactivity (PSR sort gate)” value is on record as “high polyreactivity”.

On to “QVQLVESGGGLVQAGGSLRLSCAASGRIFGKYAMGWYRHAPGKERELVAAIRSRGSTTYYADSVKGRFTISRDNAKNTVYLQMNSLKPEDTAVYYCAKDVGGKPWYPYGYWGQGTQVTVSS”, for which the “polyreactivity (PSR sort gate)” value was “high polyreactivity”.

“QVQLVESGGGLVQSGGSLRLSCAASGSIFWYNARGWYRQAPGKERELVAAINGGGRTYYADSVKGPFTISRDNAKNTVYLQMNSLKPEDTAVYYCAVDPISQGHMDYGGQGTQVTVSS”: the “polyreactivity (PSR sort gate)” value is listed as “low polyreactivity”.

Regarding “QVQLVESGGGLDQAGGRLRLSCAAYGSTFELYAMGWYRQAPGKERELVASITGDSTNYADSVKGRFTISRDNAKNTVYLQMNSLKPEDTAVYYCAAEYVPYYEYESWGQGTQVTVSS”, the “polyreactivity (PSR sort gate)” value is “low polyreactivity”.

In the case of “QVQLVESGGGLVQAGGSLRLSCAASGITFYVYTMGWDRQAPGKERELVAAITWSGGSTYYADSVKGRFTISRDNAKNTVYLQMKSLKPEDTAVYYCNRVGYWVGLDSWGQGTQVTVSS”, the “polyreactivity (PSR sort gate)” value was “high polyreactivity”.

Take “QVQLVESGGGLVQAGGSLRLSCAAYGNTFSQYAKGWYRQAPGKERELVATISKSSGSTSYTDSVKGRFTISRDNAKNTVYLQLNSLKPEDSAVYYCNADSSDVYHHLGVLFFSTWYDYWGQGTLVTVSS”: the “polyreactivity (PSR sort gate)” value is “low polyreactivity”.

On to “QVHLVESGGGLVQAGGSLRLSCAASGSTLHYYTMGWYRQEPGKERELVAAITSGGSTHYADSVKGRFTISRDNAKNTVYLQMNSLKPEDTAVYYCAVKTGKWIPRDYWGQGTQVTVSS”, for which the “polyreactivity (PSR sort gate)” value is reported as “low polyreactivity”.

In the case of “QVQLVESGGGLVQAGVSLRLSCAASGRIFPGYAMGSDRQAPAKERELVAGITWRTARTYYADSVKGRFTISRDNAKNTVYLQMNSLKPEDTAVYYCAAVSDYEGNYWGQGTQVTVSS”, the “polyreactivity (PSR sort gate)” value is listed as “high polyreactivity”.

Take “QVQLVESGGGLVQAGGSLRLSCAASGRTFRLYAMGWDRPAPGKERELVAAITRGGRTTYADSVKGRFTISRDNAKNTVYLQMNSLKPEDTAVYYCAARYVERHTDYYYWGQGTQVTVSS”: the “polyreactivity (PSR sort gate)” value was “low polyreactivity”.

For “QVQLVESGGGLVQAGGSLRLSCAASGRTFGPNAMGWYRQAPGKERELVAGISWRGTSTYYADSVKGRFTISRDNAKNTVYLQMNSLKPEDTAVYYCAKSVYGYGTLYDHWGQGTQVTVSS”, the “polyreactivity (PSR sort gate)” value was “high polyreactivity”.

On to “QVQLVESGGGLVQAGGSLRISCAASGSTFLINAMGWYRQAPGKERELVAAIRYSGGRTYYADSVKGRFTISRDNAKNTVYLQMNSLKPEDTAVYYCNARPYRSQIGVHYDYWGQGTQVTVSS”, for which the “polyreactivity (PSR sort gate)” value was “high polyreactivity”.

As for “QVQLVESGRGLVQAGGSLRLSCAASGSTCEGNAMGWYRQAPGKEELVAAISWSSDSTYNADSVKGRFTISRDNAKNTVYLQMNSLKPEDTAVYYCAAAIPGKYSNDYWGQGTQVTVSS”, the “polyreactivity (PSR sort gate)” value is recorded as “high polyreactivity”.

As to “QVQLVESGGGLVQAVGSLRLSCAPSGTTFTHYAMGWYRKAPGKERELVAAISWSGGSTYYADSVKGRFTISRDNAKNTVYLQMNSLKQEDCAVYYCKTYGVSYYGSGYYWGQGTQVTVSS”, the “polyreactivity (PSR sort gate)” value is listed as “high polyreactivity”.

On to “QVQLVESRGALVQAGGSLRLSCAATGSSFNRYAMRWYRQAPRKERELVAAISSGRTTNYADSVKGRFTISRDNAKNTVYLQMNSLKPEDTAVYYCNRKFRYSSHTNYYYWGQGTQVTVSS”, for which the “polyreactivity (PSR sort gate)” value is listed as “high polyreactivity”.

Take “QVQLVDSGGGLVQAGGSLRLSCAASGSTFRYYAMGWYRQAPGKEREFVAAITRSGGSTYYADSVKGRFTISRDNAKNTVYLQMNSLKPEETAVYYCNARPSASSRKKLERYYWGQGTQVTVSS”: the “polyreactivity (PSR sort gate)” value is “low polyreactivity”.

“QVQLVESGGGLVQAGGSLRLSCAASGITFVIYAMGWYRQAPGKEREFVAGINWSTGSTYYADTVKGRFTISRDYAKNTVYLQMNSLKPEDTAVYYFNVDAIINAIGAYWYDFDYWGQGTQVTVSS”: the “polyreactivity (PSR sort gate)” value is reported as “low polyreactivity”.

Turning to “QVQLVESGGGLVQAGGSLRLICAASGSIFTKYTMGWSRQAPGKERELVAAITLRGTSTYYADSVKGRFTISRDNAMNTVYLQMNSLIPEDTAFYYCNKLYSWVVAYDYWGQGTQVTVSS”, the “polyreactivity (PSR sort gate)” value is “high polyreactivity”.

In the case of “QVQLVESGGGLVQAGGSLRLSCAASGSTFYYNTMGWYRQAPGKERELVAAISWRGGSTYYADSVKGRFTISRDNAKNTVYLLMNSLKPVDTAVYYCAAGWYPRSVRPFESFVGLDYWGQGTQVTVSS”, the “polyreactivity (PSR sort gate)” value is given as “high polyreactivity”.

In the case of “QVQLVESWGGLVQAGGSLRLSCAASGRTFRLYAMGWYRQAPGKERELVATNTSTGSTNYADSVKGRFTISRDNAKNTVFLQMNSLKPDDTAVYYCNAAWYNPKSWTQYPPFDYWGQGTQVTVSS”, the “polyreactivity (PSR sort gate)” value is “high polyreactivity”.

For “QVQLVESGGGLVQAGGTLRLSCAPSGRTFKRYAMGWYRQAPGKERELVAAISSGGSTYADSVKGRFTISRDNAKNTVYLHMNSLKTEDTAVYYCAARYRSYPERYNYWGQGTQGTVSS”, the “polyreactivity (PSR sort gate)” value is listed as “high polyreactivity”.

Consider “QVQLVESGGGLVQAGGSLRLSCAASGGIFNYYAMGWYRQAPGKERELVAAMTSAGSTYADSVKGRFTISRDNATNTVSLQMNILKPEDTAVYYCNAVGVVVKFGYYLIGYAKWYDYWGQGSQVTVSS”, for which the “polyreactivity (PSR sort gate)” value is “low polyreactivity”.

Turning to “QVQLVESGGGLVQAGGSLRLSCAASGSIFYRYVMGWYRQAPGKERELVAAITSDGSTNYADSVKGRFTISRDNAKNTVYLQMNSLKPEDTAVYYCNARSYRGRFDYWGQGTQVTVSS”, the “polyreactivity (PSR sort gate)” value is “low polyreactivity”.

In the case of “QVQLVESGGGLVQAGGSLRLSCAAYGRIFFRYAMGWYRQAPGKERELVATISSSGSTYYADSVKGRFTISRDNAKNTVYLQMNSLIPEDTAVYYCAATWTTRGLRHFVYNDYDYWGQGTQVTVSS”, the “polyreactivity (PSR sort gate)” value is recorded as “high polyreactivity”.

On to “QVQLVESGGGLVQAGGSLRLSCDASGRIFSLYAMGWYRQAPGKERELVAAISRRSGNTNYADSVKGRFTISRDNAKNNVFLQLNSLKPEDTAVYFCAARPGAISSTSPYDYWGEGTQVTVSS”, for which the “polyreactivity (PSR sort gate)” value was “high polyreactivity”.

Consider “QVQLVESGGGLVQAGGSLRLSCAAFPYAMGWYIPAPAKERELVAAISSSGTSTYYADSVKGRFTISRDNAKNTVYLQMNSLKPEDTAVYYCNTALSRLSQHDYWGQGTQVTVSS”, for which the “polyreactivity (PSR sort gate)” value was “low polyreactivity”.

“QVQLVESGGGLVQAGGSLRLSCAASGSTYDYNAMGWYIQAPGKERELDAAINSGASTYYGDSVKGRFTISRDNEKNSVYLQMNSMKPEDTAVYYCAKDYPYIGDYWGQCTQVTVSS”: the “polyreactivity (PSR sort gate)” value is on record as “low polyreactivity”.

For the sequence “QVQLVESGGGLVQAGGSLRLSCAASGSTYYKYAMGTDRPAPGKERELVASSSRSGGSTSYADSVKGRFTISRDNAKNTVYLQMNSVKPEDTAVYYCAATWRQHPGSMGYWGQGTQVTVSS”, the “polyreactivity (PSR sort gate)” value is “high polyreactivity”.

Turning to “QVQLVESGGGLVQAGGSLRLSCAASGYIFVTNAMGWYRQAPGKERELVAAISYRGGSTSYADSVKGRFTISRDNAKNTVYLQMNSLKPEDTAVYYCNAVTFPLGYLRFYYWGQGTQVTVSS”, the “polyreactivity (PSR sort gate)” value is listed as “low polyreactivity”.
